Laboratory results taken from patent US20230322884A1, “IMMUNOSUPPRESSANT IN COMBINATION WITH HIGH AFFINITY IL-2 RECEPTOR AGONISTS AND RELATED DOSING” (Selecta Biosciences, Inc., priority 2022, published 2023).

Tested on: Ovalbumin-specific OTII T cells
Experiment: Adoptive transfer of ovalbumin-specific OTII T cells, Foxp3 expression and total Treg (Example 5)
Format: in vivo, mice
Conditions: OTII T cells adoptively transferred prior to treatment
Protocol: However, expansion of antigen-specific Treg can be more desirable than expansion of total Treg. The ability of ImmTOR plus antigen combined with IL-2 mutein to induce and/or expand antigen-specific Treg was evaluated. Ovalbumin-specific OTII T cells were adoptively transferred into mice prior to treatment with ovalbumin and ImmTOR and/or IL-2 mutein.

B1: ovalbumin (protein, UniProt P01012 2-386, looked up)
Ovalbumin: GSIGAASMEFCFDVFKELKVHHANENIFYCPIAIMSALAMVYLGAKDSTRTQINKVVRFDKLPGFGDSIEAQCGTSVNVHSSLRDILNQITKPNDVYSFSLASRLYAEERYPILPEYLQCVKELYRGGLEPINFQTAADQARELINSWVESQTNGIIRNVLQPSSVDSQTAMVLVNAIVFKGLWEKAFKDEDTQAMPFRVTEQESKPVQMMYQIGLFRVASMASEKMKILELPFASGTMSMLVLLPDEVSGLEQLESIINFEKLTEWTSSNVMEERKIKVYLPRMKMEEKYNLTSVLMAMGITDVFSSSANLSGISSAESLKISQAVHAAHAEINEAGREVVGSAEAGVDAASVSEEFRADHPFLFCIKHIATNAVLFFGRCVSP
notes: model antigen administered to mice
percentage of Foxp3+ OTII cells: ~6%
